The assay concerns the target recombinant CD47 protein (UniProt Q08722 19-139). Put plainly: SPR; recombinant CD47 coupled to CM5 chip (250 RU); 1:1 model, global fit. Background: SPR reads the build-up and loss of mass on a sensor chip optically.

recombinant CD47 protein, sequence (Q08722 19-139 limits assumed): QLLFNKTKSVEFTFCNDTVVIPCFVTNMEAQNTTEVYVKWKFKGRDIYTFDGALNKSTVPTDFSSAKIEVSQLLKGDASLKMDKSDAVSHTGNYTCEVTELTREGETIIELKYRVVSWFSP
Method: Specifically, the recombinant CD47 protein was conjugated to the surface of the CM5 chip by a target SPR reaction of 250 RU through an EDC-NHS reaction to be used, and for HBS-P, the sensogram obtained through a process of association for 3 minutes and dissociation for 10 minutes at a flow rate of 30 µL/minutes was analyzed with the BiaEvaluation software using a 1:1 binding model and global fitting.

B1: SV4 (designed binder)
chain: MEEELQIIQPDLSVSVAAGESAILHCTITSLFPVGPIQWFRGAGPARVLIYNQRQGPFPRVTTVSETTKRENMDFSISISNITPADAGTYYCIKFRKGSPDTEFLSGAGTELSVRAKPS
notes: also called SV4 protein
For the molecule B1, the Kd – broadly, the constant that tells how readily two partners part at equilibrium – worked out at 1.67 nM; the koff – broadly, the rate constant with which the complex falls apart – is 0.000275 s⁻¹; the kon (as a rule, the rate constant with which the complex forms) was determined as 164000 M⁻¹ s⁻¹.

B2: SV4-iLP (other)
chain: B1 chain
notes: also called LPD-SV4; SV4-conjugated iLP
For B2, the Kd is 1.27 nM, the koff was 0.000395 s⁻¹ and the on-rate (kon) is 312000 M⁻¹ s⁻¹.

B3: SV4-DSPE (other)
chain: B1 chain
notes: also called DSPE-SV4; DSPE-PEG2000-SV4
Take B3: the Kd was 1.13 nM, the koff was found to be 0.000256 s⁻¹ and the kon is 227000 M⁻¹ s⁻¹.

The values are drawn from US20230322893A1 (BPGENE, published 2023).
